Legend:
[1] = target: T1, hCen3, purified (GST removed) (human, UniProt O15182 1-167); assay: pull-down
T1 sequence: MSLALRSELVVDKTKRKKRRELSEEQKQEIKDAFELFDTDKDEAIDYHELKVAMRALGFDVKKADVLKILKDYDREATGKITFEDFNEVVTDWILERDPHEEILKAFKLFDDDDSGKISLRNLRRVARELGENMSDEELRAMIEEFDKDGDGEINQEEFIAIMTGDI

[2] = target: T2, hCen2, purified (GST removed) (human, UniProt P41208 1-172); assay: pull-down
T2 sequence: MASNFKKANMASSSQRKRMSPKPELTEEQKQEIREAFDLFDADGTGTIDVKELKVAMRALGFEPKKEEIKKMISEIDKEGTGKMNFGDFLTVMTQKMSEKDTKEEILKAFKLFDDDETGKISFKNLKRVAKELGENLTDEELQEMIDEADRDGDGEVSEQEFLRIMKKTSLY

B1: GST-hPOC5 CBR2+3 (aa 222-304) (domain or fragment)
chain: EISIGRKDEVISSLSHAIGKQKEKIELMRTFFHWRIGHVRARQDVYEGKLADQYYQRTLLKKVWKVWRSVVQKQWKDVVERAC
binding result [1]: binds
binding result [2]: binds

Source: publication PMC2700515 (The Journal of Cell Biology, 2009)
